From the supplement of paper PMC12764529
± gives the half width of the 95% confidence interval.

test: folding stability dG unfold from chymotrypsin proteolysis; higher = more stable
How it was run: (§1)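 Designed mini-proteins (under 80 residues, no cysteine) in a PA-tagged cDNA display construct were digested with trypsin and chymotrypsin. Each protease was used at 11 concentrations (threefold dilutions) plus a no-protease condition, followed by sequencing. K50 was inferred by Bayesian fitting of sequencing counts, and unfolding free energy was derived against a sequence-predicted unfolded-state K50 and a shared folded-state K50, per protease or combined. Only designs with AlphaFold2 dimer inter-PAE above 15 were kept.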

Row | Sequence | folding stability dG unfold [kcal/mol]
1 | SAGGSAGGSAGGMKVKAYIFENGKLKEIELSEEELKELLKKLPNARILIEVDGKKLELPASAGGSAGGSAGG [r7_188_TrROS_Hall] | 3.79 ± 0.12
2 | SAGGSADPEKVKLIEVEVEVHVEYDPEKGTYTVKAEFPDLTLSFEVPADSIHPDEKFKAPVLILVLSAGGSA [r15_190_TrMRF] | 3.7 ± 0.22
3 | SAGGSAMKVDPSTKVVTVTDPKTGKEYRVNLPDVPPEKGVEVKVDNGKVTVKTEEGVRVIPYSELKSAGGSA [r15_864_JUSTAS] | 0.538 ± 0.12
4 | SPPGWKVIPITLKFRAPIKSVEEAKSQVREIAREIANRHGFPIQVNVTVEYDPEDGWVKVEVPISIWVPKSA [r9_741_TrROS] | 3.234 ± 0.022
5 | SAGGSAEPLVYELPDGTVVLLPPTTAVVYHRLSDGRVVVVGLEVDDPPDPEKALARARAVVEALPDSAGGSA [r15_748_TrMRF] | 1.6 ± 0.11
6 | SAGGSAGGDNWYHITIFRMKIKEVEPRKDPDGEKEPQFNFKIKEVVTIPIPPNDPEKLKDALGASAGGSAGG [r6_738_TrROS] | 1.84 ± 0.13
7 | SAGGSAGGSAGGSKKKVLYIKIDVKPNMTPEEVAKLLQEKFGVKIKKVEVENGYLKIYFSAGGSAGGSAGGS [r4_469_TrROS_Hall] | 3.8 ± 0.044
8 | SAGGSAGGSAMKVPLENVENPKKFPGTGLEIYTFTDKETGKKKIVLVEKPPNKGKKITVIESAGGSAGGSAG [r3_491_JUSTAS] | -0.146 ± 0.28
9 | SAGGMTTTTTFDGPTDEAFDLPSGVKVEPEPATGGYRVELPPGREVEVTVERSTDPGTVTWTFTFKESAGGS [r16_122_JUSTAS] | 0.531 ± 0.16
10 | SAGGKIWIPMDFLKEIAEEGNIKEIEVNPDDGDMYTIKFPNLADKFGEPVTISIRRPPGGNPWIEIEPSAGG [r13_163_TrROS] | 1.08 ± 0.17
11 | SAGFQIERKRDPDGKYEVEIKFPHPDGHPMRVKIPINPKEGKIKIDEIESTNPGHKQRMEELARWFLKASAG [r5_266_TrROS] | -0.526 ± 0.38
12 | SAGGSAGGMRLEIVVEMSEEEARELAEALRRELEERGYRVRVEVRRLPDGRLVVRVEIEPAPEPSAGGSAGG [r6_597_TrROS_Hall] | 4.49 ± 0.093
13 | SAGGSAGGGNVYVKIEIYPYDPKNGEPQEQDITIPFETKEDAKDEIEKLLNMPNGMWIKIEVVDSAGGSAGG [r7_0_TrROS] | 1.47 ± 0.035
14 | SAGGLAKAVAEELGLPELKVKEVRFAPDPAGPGLTVEVVFELPDGSYLRVEVRFHPDRIEIKAVPLPPSAGG [r19_392_TrMRF] | 3.65 ± 0.15
15 | GLVDEDGKEVFPEVPLVIELDVPENLPDGKKLSPEEVEKLVKGLAEKLKKEYNVKKVEAERKGNKVLILVGS [r1_369_TrMRF] | 0.519 ± 0.15
16 | SAGGGRVAVLKVEVRNPETGETTEVELVLPLPPEMTPEEAEEAAREAARTLAESTGVEVEIKSVELLSAGGS [r8_312_TrMRF] | 3.278 ± 0.031
17 | SAGGSAGGSALPEAEVLEVRFSPDGRRVDAVLRLDGELLVLRIDFPPDGTARIELYPAEDISAGGSAGGSAG [r3_167_TrMRF] | 2.43 ± 0.068
18 | SAKKKITVKIKIEYDKETGTLKVEVEITYPDGKKVKVEAEIDLKTGKITIKVYDKNGKLIAEIEIELPPSAG [r14_524_TrROS_Hall] | 2.35 ± 0.092
19 | SAGGDNIDVERHPHPNNMYMFSITIPPDYPLKIRYPNGPKHEIPIPDPNATIHFMFPPDEPIEIEIYPSAGG [r13_82_TrROS] | 1.25 ± 0.12
20 | SAGGSAGGSAAVPVSETPLGTLPDGRRVRLRRYRDPDGNLYTFLEVEPLPRPLSPADLEKAAASAGGSAGGS [r12_775_TrMRF] | 2.06 ± 0.12
21 | SAGGSAGGKISKEDLEKILEAIKEGKPITIVKVKVEKNENGEEVEKVEVIKTFTAEELKKLGIESAGGSAGG [r6_402_TrROS_Hall] | 1.61 ± 0.073

test: folding stability dG unfold (combined trypsin and chymotrypsin); higher = more stable
How it was run: as §1

Row | Sequence | folding stability dG unfold [kcal/mol]
22 | SAGEVKPGETVTLTIVLSKEELEKLEELAKALPGVEVTEVKVEKLPDGLVRVTITVTKEALEKLKELLESAG [r5_554_TrROS_Hall] | 3.5 ± 0.19
23 | SAGGSAGGSAGGMITVEYDPSRPVYTVTVTDPTTGKTTVIDVPRDDLEQALALAEALLKSAGGSAGGSAGGS [r10_1117_JUSTAS] | 1.67 ± 0.064
24 | SAGGSASLFIPVPPTDTSPVTVEITIGNSKYRATLTVDPNNPNLMTVTLTDPNGGATTTETVPLLDSAGGSA [r15_328_JUSTAS] | 1.79 ± 0.069
25 | SAGGSAGGSAGGEEPVTFMVRIPIRRRDPDGNPEPVAEIDINVTMPPEDAERIIKELIKSAGGSAGGSAGGS [r10_574_TrROS] | -0.326 ± 0.22
26 | SAGMVKIEIEKKEDGEILITITAPSEEELKKLAEELAKELAKKLGIEEIEVKVEKLENGEYKVTIRIKKSAG [r5_772_TrROS_Hall] | 2.99 ± 0.23
27 | SAGGSAGGSAGSTVTLTVDPDTNVATLTAIIGGKPVTATLTFIPNTGKARLPDGTWIDISSAGGSAGGSAGG [r11_395_TrMRF] | 1.28 ± 0.069
28 | SAGGSKIRIVEIQPSNGFTIKIRPKNGKKMTIPIPPDDMNDPENWERFARTLAKWFEKNGVKDIEISAGGSA [r2_249_TrROS] | 0.538 ± 0.26
29 | SAWVIPFEVRLPGSPEQARRQVEEWADNIANRYQQNGFRVVDIKIDEIEPDNVRVRLTIQIVPPGQEIPSAG [r14_973_TrROS] | 2.66 ± 0.14
30 | SAGGSAGGTLKELIDNITRVDPENGKQRMRIPGGAEIEINPEEGQIKIRYYHPGKPQEITLPLPSAGGSAGG [r6_793_TrROS] | 0.651 ± 0.31
31 | SAGGSLVTTEFPGVTITTDPATGVLTVEASPEEVERLIEALGPEFNPVEIRRLPDGSYLLTLPVTPPSAGGS [r8_415_JUSTAS] | 2.1 ± 0.03
32 | SAGGSAGGSTPELLKKLPPGAKVEVETRLVTNEDGSVYKVVKIKIVDKKTNKTLELELVVKLPSAGGSAGGS [r12_892_TrROS_Hall] | 1.96 ± 0.07
33 | SAGGSAGGSAGGSADKNGYVKIPITVFTMERYGNGQPKMETVKVEIYVPPGESIEDLLQSAGGSAGGSAGGS [r4_283_TrROS] | 0.247 ± 0.22
34 | SAGGSAGGSAGMFVERTLEITFVRPPNGPGPEEVEKRAKELQEKNPHLNVKVKVVDPSEASAGGSAGGSAGG [r17_220_JUSTAS] | 0.699 ± 0.26
35 | SAGGSAGGSAGGMSVTVSREKLPDGSYLVTVTTEVGGGPVTTPYRVPPSLSSAEEVVEKLSAGGSAGGSAGG [r7_75_JUSTAS] | -0.23 ± 0.2
36 | SAGGSADTITIFFPGMPPEFAKEILEAILYEQGWKPKSVSTERHPEKGMHTIEVRFPNGRKITIMFSAGGSA [r15_958_TrROS] | 2.75 ± 0.052
37 | SAGGSAGGSAMLVIRVVTEDGEEREIEIPEGEELTLEEILAALRTPDGREVPIERVEIFPASAGGSAGGSAG [r3_465_TrROS_Hall] | 1.84 ± 0.11
38 | SAGKINIPPDTDITVKISTEKKPNPPSPEEEEYVGVSYIKVKKNPDGSIEVEEEKFEIISKEEAEKMGLSAG [r5_340_JUSTAS] | 0.23 ± 0.28
39 | SAGKKKFITIVIPIEKKEKLKKAVEELKKKFNAKELAVIPNPEKNEIIEVVVKETKDAIIKIVIIAKESAGG [r19_262_TrMRF] | 1.45 ± 0.089
40 | SAGGSAGGSAGMKTRTITVSVSPEESEEEVRERVEAELPPGSVVEVTRLPDGTVVVTVEESAGGSAGGSAGG [r17_20_JUSTAS] | 1.55 ± 0.048
41 | SAGGALEKILEAIENAPTSVPEVTVEIELPTGTLKATITNKGKPVLITIELTHPDGSKSTITLTFSLSAGGS [r16_642_TrMRF] | 3.78 ± 0.063
42 | SAGNFNIKEQKETDGRRVIEIPMPGSGHEITIVFERNPDGPRKININMNGPMADYLREALPGIDRVEIISAG [r5_933_TrROS] | 0.213 ± 0.22

Row | Sequence | folding stability dG unfold [kcal/mol]
43 | SAGGSAGGSAGGMKVKAYIFENGKLKEIELSEEELKELLKKLPNARILIEVDGKKLELPASAGGSAGGSAGG [r7_188_TrROS_Hall] | 3.51 ± 0.2
44 | SAGGSADPEKVKLIEVEVEVHVEYDPEKGTYTVKAEFPDLTLSFEVPADSIHPDEKFKAPVLILVLSAGGSA [r15_190_TrMRF] | 3.29 ± 0.24
45 | SAGGSAMKVDPSTKVVTVTDPKTGKEYRVNLPDVPPEKGVEVKVDNGKVTVKTEEGVRVIPYSELKSAGGSA [r15_864_JUSTAS] | 0.71 ± 0.097
46 | SPPGWKVIPITLKFRAPIKSVEEAKSQVREIAREIANRHGFPIQVNVTVEYDPEDGWVKVEVPISIWVPKSA [r9_741_TrROS] | 2.97 ± 0.09
47 | SAGGSAEPLVYELPDGTVVLLPPTTAVVYHRLSDGRVVVVGLEVDDPPDPEKALARARAVVEALPDSAGGSA [r15_748_TrMRF] | 1.26 ± 0.13
48 | SAGGSAGGDNWYHITIFRMKIKEVEPRKDPDGEKEPQFNFKIKEVVTIPIPPNDPEKLKDALGASAGGSAGG [r6_738_TrROS] | 1.37 ± 0.12
49 | SAGGSAGGSAGGSKKKVLYIKIDVKPNMTPEEVAKLLQEKFGVKIKKVEVENGYLKIYFSAGGSAGGSAGGS [r4_469_TrROS_Hall] | 3.49 ± 0.048
50 | SAGGSAGGSAMKVPLENVENPKKFPGTGLEIYTFTDKETGKKKIVLVEKPPNKGKKITVIESAGGSAGGSAG [r3_491_JUSTAS] | 0.0523 ± 0.14
51 | SAGGMTTTTTFDGPTDEAFDLPSGVKVEPEPATGGYRVELPPGREVEVTVERSTDPGTVTWTFTFKESAGGS [r16_122_JUSTAS] | 0.544 ± 0.078
52 | SAGGKIWIPMDFLKEIAEEGNIKEIEVNPDDGDMYTIKFPNLADKFGEPVTISIRRPPGGNPWIEIEPSAGG [r13_163_TrROS] | 0.717 ± 0.15
53 | SAGFQIERKRDPDGKYEVEIKFPHPDGHPMRVKIPINPKEGKIKIDEIESTNPGHKQRMEELARWFLKASAG [r5_266_TrROS] | -0.44 ± 0.16
54 | SAGGSAGGMRLEIVVEMSEEEARELAEALRRELEERGYRVRVEVRRLPDGRLVVRVEIEPAPEPSAGGSAGG [r6_597_TrROS_Hall] | 4.63 ± 0.17
55 | SAGGSAGGGNVYVKIEIYPYDPKNGEPQEQDITIPFETKEDAKDEIEKLLNMPNGMWIKIEVVDSAGGSAGG [r7_0_TrROS] | 1.47 ± 0.12
56 | SAGGLAKAVAEELGLPELKVKEVRFAPDPAGPGLTVEVVFELPDGSYLRVEVRFHPDRIEIKAVPLPPSAGG [r19_392_TrMRF] | 3.23 ± 0.15
57 | GLVDEDGKEVFPEVPLVIELDVPENLPDGKKLSPEEVEKLVKGLAEKLKKEYNVKKVEAERKGNKVLILVGS [r1_369_TrMRF] | 0.706 ± 0.1
58 | SAGGGRVAVLKVEVRNPETGETTEVELVLPLPPEMTPEEAEEAAREAARTLAESTGVEVEIKSVELLSAGGS [r8_312_TrMRF] | 3.46 ± 0.053
59 | SAGGSAGGSALPEAEVLEVRFSPDGRRVDAVLRLDGELLVLRIDFPPDGTARIELYPAEDISAGGSAGGSAG [r3_167_TrMRF] | 2.07 ± 0.13
60 | SAKKKITVKIKIEYDKETGTLKVEVEITYPDGKKVKVEAEIDLKTGKITIKVYDKNGKLIAEIEIELPPSAG [r14_524_TrROS_Hall] | 2.61 ± 0.36
61 | SAGGDNIDVERHPHPNNMYMFSITIPPDYPLKIRYPNGPKHEIPIPDPNATIHFMFPPDEPIEIEIYPSAGG [r13_82_TrROS] | 1.2 ± 0.083
62 | SAGGSAGGSAAVPVSETPLGTLPDGRRVRLRRYRDPDGNLYTFLEVEPLPRPLSPADLEKAAASAGGSAGGS [r12_775_TrMRF] | 1.68 ± 0.1
63 | SAGGSAGGKISKEDLEKILEAIKEGKPITIVKVKVEKNENGEEVEKVEVIKTFTAEELKKLGIESAGGSAGG [r6_402_TrROS_Hall] | 1.43 ± 0.2
